Data set [1] concerns the target T1, WRN (human, UniProt Q14191 1-1432). The data set is described as follows: EMSA; ATPgS, 4 mM Mg2+; EMSA: 40 mM Tris-HCl pH 8.0, 4 mM MgCl2, 5 mM DTT, 1 mM ATPgS, 0.1 ug BSA in 10 ul, 4 C, 20 min; +10 mM KCl for quadruplexes; 4% gel, 0.5x Tris-glycine pH 8.3. The following applies: protein: recombinant, tags: His6. For orientation: Mobility shift assays separate free from complexed probe on a gel.

For data set [2], the target named is T1, WRN. Nature of the data set: EMSA; ATPgS, 10 mM KCl; tight, similar to G'2 TeR43; EMSA: 40 mM Tris-HCl pH 8.0, 4 mM MgCl2, 5 mM DTT, 1 mM ATPgS, 0.1 ug BSA in 10 ul, 4 C, 20 min; +10 mM KCl for quadruplexes; 4% gel, 0.5x Tris-glycine pH 8.3. To be noted: protein: recombinant; tags: His6; label: 5'-32P; G4 dimer of 2 strands, described as antiparallel.
Another data set concerns the target WRN K577M (human, UniProt Q14191 1-1432, K577M). The data set is described as follows: EMSA; similar to wild type; EMSA: 40 mM Tris-HCl pH 8.0, 4 mM MgCl2, 5 mM DTT, 1 mM ATPgS, 0.1 ug BSA in 10 ul, 4 C, 20 min; +10 mM KCl for quadruplexes; 4% gel, 0.5x Tris-glycine pH 8.3. To be noted: protein: recombinant; tags: His6; label: 5'-32P; G4 dimer of 2 strands, described as antiparallel.

Data set [3] deals with T1, WRN. Nature of the data set: EMSA; ATPgS, 4 mM Mg2+, 10 mM KCl; EMSA: 40 mM Tris-HCl pH 8.0, 4 mM MgCl2, 5 mM DTT, 1 mM ATPgS, 0.1 ug BSA in 10 ul, 4 C, 20 min; +10 mM KCl for quadruplexes; 4% gel, 0.5x Tris-glycine pH 8.3. The following applies: protein: recombinant, tags: His6, label: 5'-32P.
In a further data set the target is BLM (UniProt P54132 1-1417). Described as above. To be noted: protein: recombinant; tags: C-terminal FLAG; label: 5'-32P; G4 tetramer of 4 parallel strands.
BLM, sequence (P54132 whole entry): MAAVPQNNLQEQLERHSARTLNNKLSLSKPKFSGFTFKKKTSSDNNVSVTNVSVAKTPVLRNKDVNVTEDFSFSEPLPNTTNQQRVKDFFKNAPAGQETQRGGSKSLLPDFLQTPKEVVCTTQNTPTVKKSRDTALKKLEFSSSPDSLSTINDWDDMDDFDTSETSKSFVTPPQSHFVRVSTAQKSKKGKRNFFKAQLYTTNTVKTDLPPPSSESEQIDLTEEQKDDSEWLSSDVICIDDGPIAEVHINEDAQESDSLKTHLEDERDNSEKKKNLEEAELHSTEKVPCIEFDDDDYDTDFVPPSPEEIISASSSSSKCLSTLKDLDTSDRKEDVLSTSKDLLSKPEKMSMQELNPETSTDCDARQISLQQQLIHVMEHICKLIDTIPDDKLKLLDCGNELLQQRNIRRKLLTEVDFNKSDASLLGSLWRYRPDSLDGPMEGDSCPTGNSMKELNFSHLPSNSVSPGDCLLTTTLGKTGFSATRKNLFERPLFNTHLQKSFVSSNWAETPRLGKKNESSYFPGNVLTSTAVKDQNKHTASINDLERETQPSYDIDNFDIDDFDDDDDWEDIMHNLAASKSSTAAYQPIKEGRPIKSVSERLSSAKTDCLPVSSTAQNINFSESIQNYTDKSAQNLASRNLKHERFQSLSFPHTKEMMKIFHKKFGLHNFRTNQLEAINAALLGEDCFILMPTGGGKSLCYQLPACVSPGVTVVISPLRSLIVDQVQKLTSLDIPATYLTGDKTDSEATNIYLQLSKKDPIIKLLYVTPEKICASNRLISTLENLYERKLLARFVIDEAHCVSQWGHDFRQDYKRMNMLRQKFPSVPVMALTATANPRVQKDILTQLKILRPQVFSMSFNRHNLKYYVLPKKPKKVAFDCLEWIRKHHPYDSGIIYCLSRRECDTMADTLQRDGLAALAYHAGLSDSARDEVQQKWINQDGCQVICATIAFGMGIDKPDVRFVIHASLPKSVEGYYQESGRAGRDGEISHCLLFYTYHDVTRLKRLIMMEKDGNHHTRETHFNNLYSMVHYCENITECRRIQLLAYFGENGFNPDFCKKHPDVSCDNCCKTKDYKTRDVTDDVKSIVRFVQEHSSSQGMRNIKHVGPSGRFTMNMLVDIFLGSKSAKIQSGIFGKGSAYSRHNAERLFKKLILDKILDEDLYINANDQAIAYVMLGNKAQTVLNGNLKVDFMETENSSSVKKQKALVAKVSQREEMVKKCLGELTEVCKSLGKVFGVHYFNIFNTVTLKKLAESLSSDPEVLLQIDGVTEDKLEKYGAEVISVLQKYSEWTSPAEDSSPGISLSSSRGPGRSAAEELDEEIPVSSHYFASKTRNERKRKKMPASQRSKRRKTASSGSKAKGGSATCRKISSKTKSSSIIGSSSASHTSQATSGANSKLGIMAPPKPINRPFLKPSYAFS

Positions count from the first letter of the chain named.

T1 sequence (Q14191 whole entry): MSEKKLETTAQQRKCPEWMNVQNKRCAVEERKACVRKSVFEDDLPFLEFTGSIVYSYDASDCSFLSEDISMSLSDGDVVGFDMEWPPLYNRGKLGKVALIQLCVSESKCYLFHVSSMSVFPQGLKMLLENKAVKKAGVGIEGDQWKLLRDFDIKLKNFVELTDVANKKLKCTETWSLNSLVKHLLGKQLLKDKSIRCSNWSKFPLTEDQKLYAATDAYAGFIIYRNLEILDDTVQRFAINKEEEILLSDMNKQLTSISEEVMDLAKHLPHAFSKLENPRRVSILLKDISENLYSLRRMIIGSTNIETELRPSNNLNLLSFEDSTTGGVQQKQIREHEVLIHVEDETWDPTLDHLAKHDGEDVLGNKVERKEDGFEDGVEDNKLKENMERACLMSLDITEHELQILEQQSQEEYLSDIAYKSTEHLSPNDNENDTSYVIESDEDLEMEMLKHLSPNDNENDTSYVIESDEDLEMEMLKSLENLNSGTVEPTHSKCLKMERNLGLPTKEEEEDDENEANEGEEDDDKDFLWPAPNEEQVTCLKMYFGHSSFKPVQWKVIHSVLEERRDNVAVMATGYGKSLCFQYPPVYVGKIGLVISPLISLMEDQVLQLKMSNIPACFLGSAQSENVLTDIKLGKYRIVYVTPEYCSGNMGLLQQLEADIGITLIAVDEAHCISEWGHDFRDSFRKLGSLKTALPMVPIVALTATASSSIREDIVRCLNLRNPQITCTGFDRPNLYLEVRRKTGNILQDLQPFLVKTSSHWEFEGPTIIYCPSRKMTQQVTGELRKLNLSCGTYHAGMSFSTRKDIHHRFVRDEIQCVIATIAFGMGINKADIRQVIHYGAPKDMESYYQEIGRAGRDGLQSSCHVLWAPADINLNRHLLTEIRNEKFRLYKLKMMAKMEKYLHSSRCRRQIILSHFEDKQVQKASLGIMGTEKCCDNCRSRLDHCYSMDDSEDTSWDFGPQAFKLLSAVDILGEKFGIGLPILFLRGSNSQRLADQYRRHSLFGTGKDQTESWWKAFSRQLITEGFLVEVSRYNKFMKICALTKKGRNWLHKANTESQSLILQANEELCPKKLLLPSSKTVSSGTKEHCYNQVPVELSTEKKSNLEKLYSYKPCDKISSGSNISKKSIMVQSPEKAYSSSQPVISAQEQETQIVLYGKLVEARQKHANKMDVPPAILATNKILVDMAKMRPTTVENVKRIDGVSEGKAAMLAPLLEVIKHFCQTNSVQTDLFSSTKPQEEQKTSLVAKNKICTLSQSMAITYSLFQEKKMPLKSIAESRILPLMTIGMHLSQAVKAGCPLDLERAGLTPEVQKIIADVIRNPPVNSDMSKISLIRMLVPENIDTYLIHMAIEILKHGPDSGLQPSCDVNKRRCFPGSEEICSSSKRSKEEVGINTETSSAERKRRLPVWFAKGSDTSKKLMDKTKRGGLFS
WRN K577M, sequence (Q14191 whole entry K577M): as the sequence (Q14191 whole entry) above, with K577M counted along it

B1: dsTeR63 partial duplex (dsDNA)
DNA 1: GGTTAGGGTTAGGGTTAGGGTTAGGGTTAGTTAGGGTTAGGGTTAGGGTTAGGGGCGATTGAT
DNA 2: ATCAATCGCCCCTAACCC
By Kd is commonly meant the constant that tells how readily two partners part at equilibrium. On to B1, for which the Kd with WRN [1] (label: 5'-32P on strand 2, 18 bp, 45 nt 5' tail on strand 1) is 7.6 ± 2.9 nM.

B2: G'2 TeR63 quadruplex (structured_DNA)
DNA: B1 DNA 1
B2: in the data set with WRN [2], the binding result is “binds”.

B3: 20/46 partial duplex (dsDNA)
DNA 1: CGCTAGCAATATTCTGCAGC
DNA 2: GCGCGGAAGCTTGGCTGCAGAATATTGCTAGCGGGAAATCGGCGCG
modifications: 3'-terminal inverted dC on the 20-mer
For the molecule B3, the Kd in the data set with WRN [1] (label: 5'-32P on strand 1, 20 bp, 13 nt 5' and 13 nt 3' tails on strand 2) stood at 2.3 ± 1.3 nM.

B4: Bubble DNA (dsDNA)
DNA 1: B3 DNA 2 with A38T
DNA 2: CGCGCCGAATTCCCGCTAGTGGCGCCTTGCAGCCAAGCTTCCGCGC
For the molecule B4, the Kd in the data set with WRN [1] (label: 5'-32P on strand 1, blunt, 8 nt non-complementary central bubble) stood at 24.7 ± 3.5 nM.

B5: Splayed arm DNA (dsDNA)
DNA 1: CGCGCCGAATTCCCGCTAGCAATATTCTGCAGCCAAGCTTCCGCGC
DNA 2: GGCGAACTGCCATTCGCACTTACACTGCTAGCGGGAATTCGGCGCG
For the molecule B5, the Kd with WRN [1] (label: 5'-32P on strand 1, fork) was 6.2 ± 1.3 nM.

B6: G'2 TeR43 quadruplex (structured_DNA)
DNA: GGTTAGGGTTAGGGTTAGGGTTAGGGTTAGTTAGGGTTAGGGT
For the molecule B6, the binding result in the data set with WRN K577M is “binds”. Further, the Kd with WRN [3] (G4 dimer of 2 strands, described as antiparallel) was 0.26 ± 0.08 nM.

B7: G4 IgG quadruplex (structured_DNA)
DNA: TGGACCAGACCTAGCAGCTATGGGGGAGCTGGGGAAGGTGGGAATGTGA
As to B7, the Kd was 7 ± 2.9 nM with BLM and 3.4 ± 0.4 nM with WRN [3] (G4 tetramer of 4 parallel strands).

Values taken from PMC3260238, “The Werner Syndrome Protein Is Distinguished from the Bloom Syndrome Protein by Its Capacity to Tightly Bind Diverse DNA Structures”.
